From publication PMC6595482 (Molecular microbiology, 2018) come the findings set out here.

In this assay the target is E. coli RNA polymerase (E. coli) (UniProt P0A7Z4).
Sequence of E. coli RNA polymerase (E. coli) (P0A7Z4 whole entry, looked up): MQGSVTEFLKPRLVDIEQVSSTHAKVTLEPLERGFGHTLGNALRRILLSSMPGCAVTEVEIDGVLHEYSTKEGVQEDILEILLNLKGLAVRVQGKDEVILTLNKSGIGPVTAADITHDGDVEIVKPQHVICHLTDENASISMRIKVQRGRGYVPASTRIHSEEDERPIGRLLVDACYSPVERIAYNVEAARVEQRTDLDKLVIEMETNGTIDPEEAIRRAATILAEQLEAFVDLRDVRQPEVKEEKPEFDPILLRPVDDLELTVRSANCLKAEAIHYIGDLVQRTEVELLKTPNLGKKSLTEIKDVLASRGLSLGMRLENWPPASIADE

B1: Escherichia coli RfaH (natural protein)
chain: MQSWYLLYCKRGQLQRAQEHLERQAVNCLAPMITLEKIVRGKRTAVSEPLFPNYLFVEFDPEVIHTTTINATRGVSHFVRFGASPAIVPSAVIHQLSVYKPKDIVDPATPYPGDKVIITEGAFEGFQAIFTEPDGEARSMLLLNLINKEIKHSVKNTEFRKL
B1 gave an Exo III footprinting of the upstream boundary of the ops TEC (100 nM RfaH) of 7 nt.
